{
  "source": "patent EP3988566A1",
  "key": {"[1]": {"biological_target": "amyloid beta 1-42 monomers (UniProt P05067)", "sequence (P05067 672-713 limits assumed)": "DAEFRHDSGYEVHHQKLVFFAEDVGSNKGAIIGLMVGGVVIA", "assay": "cell-based or functional assay"}, "amyloid beta 1-42 fibers": {"biological_target": "amyloid beta 1-42 fibers (UniProt P05067)", "sequence (P05067 672-713 limits assumed)": "as above", "assay": "cell-based or functional assay"}},
  "data": [
    {"substance": "humanized anti-human amyloid beta monoclonal antibody hC2", "values": [
      {"measurement": "inhibition of Aβ1-42 aggregation, thioflavin T assay, antibody to Aβ1-42 molar ratio 1:10", "setting": "[1]", "result": 80.4, "unit": "%"},
      {"measurement": "inhibition of Aβ1-42 aggregation, thioflavin T assay, antibody to Aβ1-42 molar ratio 1:100", "setting": "[1]", "result": 30, "unit": "%"},
      {"measurement": "disaggregation of pre-aggregated Aβ1-42, thioflavin T assay, antibody to Aβ1-42 molar ratio 1:10", "setting": "amyloid beta 1-42 fibers", "result": 31.9, "unit": "%"},
      {"measurement": "disaggregation of pre-aggregated Aβ1-42, thioflavin T assay, antibody to Aβ1-42 molar ratio 1:100", "setting": "amyloid beta 1-42 fibers", "result": 23.9, "unit": "%"}
    ]}
  ]
}
